Binding signal data for 45 molecules are collected here from patent US20110281938, “APTAMERS TO TISSUE FACTOR PATHWAY INHIBITOR AND THEIR USE AS BLEEDING DISORDER THERAPEUTICS” (Baxter Healthcare S.A., published 2011).

T1 sequence (P10646 29-304): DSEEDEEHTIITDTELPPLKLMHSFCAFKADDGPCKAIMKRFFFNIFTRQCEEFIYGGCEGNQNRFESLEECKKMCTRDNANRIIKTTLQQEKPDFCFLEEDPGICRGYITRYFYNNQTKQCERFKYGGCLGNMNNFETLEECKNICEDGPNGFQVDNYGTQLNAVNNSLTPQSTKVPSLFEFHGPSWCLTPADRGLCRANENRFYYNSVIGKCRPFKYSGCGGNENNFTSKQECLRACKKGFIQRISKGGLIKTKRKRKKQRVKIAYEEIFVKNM

The target in one data set is T1, TFPI (tissue factor pathway inhibitor, full-length) (Homo sapiens, UniProt P10646 SEQ:1-276). Kind of data set: competition; dot-blot. Particulars: tags: American Diagnostica 4500PC/4900PC, E. coli expressed. As for the experimental part:
Each molecule was evaluated for binding to tissue factor pathway inhibitor (TFPI) in a binding-competition assay. For these experiments, 10 nM human TFPI (American Diagnostica, Stamford, Conn., catalog #4500PC) was incubated with trace amounts of radiolabeled ARC17480 and 5000 nM, 1666.67 nM, 555.56 nM, 185.19 nM, 61.73 nM, 20.58 nM, 6.86 nM, 2.29 nM, 0.76 nM or 0.25 nM of unlabeled competitor aptamer. ARC17480 was included as a competitor in every experiment as a control. For each molecule, the percentage of radiolabeled ARC17480 bound at each competitor aptamer concentration was used for analysis. The percentage of radiolabeled ARC17480 bound was plotted as a function of aptamer concentration and fit to the equation y=(max/(1+x/IC₅₀))+int, where y=the percentage of radiolabeled ARC17480 bound, x=the concentration of aptamer, max=the maximum radiolabeled ARC17480 bound, and int=the y-intercept, to generate an IC₅₀ value for binding-competition. The IC₅₀ of each aptamer was compared to the IC₅₀ of ARC17480 that was evaluated in the same experiment. A substitution was considered tolerated in the binding-competition assay if the IC₅₀ of that molecule was not more than 5-fold greater than that of ARC17480 evaluated in the same experiment. Tolerated substitutions are indicated in Table 37 as meeting the assay criteria (“yes”) or not meeting the assay criteria (“no”).
Molecule GGAATAUACUUGGCUCGUUAGGUGCGUAUAUA (XNA, 2'-OMe except dC9, dC14, dC16, dC25 and dT5; 3' idT) [ARC19452] displayed a binding signal not above 5 fold IC50 vs ARC17480.

The molecule GGAAUAUACUUGGCUCGUUAGGUGCGUAUAUA (XNA, 2'-OMe except dC9, dC14, dC16, dC25 and dA20; 3' idT) [ARC19464] showed a binding signal not above 5 fold IC50 vs ARC17480.

Consider GGAAUAUACUUGGCUCGUUAGGUGCGUAUAUA (XNA, 2'-OMe except dC9, dC14, dC16, dC25 and dA3; 3' idT) [ARC19450], for which the binding signal is not above 5 fold IC50 vs ARC17480.

In turn, GGAAUAUACUUGGCUCGUUAGGUGCGUAUAUA (XNA, 2'-OMe except dC9, dC14, dC16, dC25 and dA4; 3' idT) [ARC19451] gave a binding signal not above 5 fold IC50 vs ARC17480.

GGAAUAUACUUGGCUCGUUAGGUGCGUAUAUA (XNA, 2'-OMe except dC9, dC16, dC25; 2'-F C14; 3' idT) [ARC19494] registered a binding signal not above 5 fold IC50 vs ARC17480.

Regarding GGAAUAUACUUGGCUCGUUAGGTGCGUAUAUA (XNA, 2'-OMe except dC9, dC14, dC16, dC25 and dT23; 3' idT) [ARC19467], the binding signal was not above 5 fold IC50 vs ARC17480.

In the case of GGAAUATACUUGGCUCGUUAGGUGCGUAUAUA (XNA, 2'-OMe except dC9, dC14, dC16, dC25 and dT7; 3' idT) [ARC19454], the binding signal is not above 5 fold IC50 vs ARC17480.

Take GGAAUAUACUUGGCUCGUUAGGUGCGUAUAUA (XNA, 2'-OMe except dC9, dC14, dC16, dC25 and dU31; 3' idT) [ARC33877]: the binding signal was not above 5 fold IC50 vs ARC17480.

Turning to GGAAUAUACUUGGCUCGUUAGGUGCGUAUAUA (XNA, 2'-OMe except dC9, dC14, dC16, dC25 and dG2; 3' idT) [ARC19449], the binding signal was not above 5 fold IC50 vs ARC17480.

Consider GGAAUAUACUTGGCUCGUUAGGUGCGUAUAUA (XNA, 2'-OMe except dC9, dC14, dC16, dC25 and dT11; 3' idT) [ARC19457], for which the binding signal is not above 5 fold IC50 vs ARC17480.

Take GGAAUAUACUUGGCUCGUUAGGUGCGUAUAUA (XNA, 2'-OMe except dC9, dC14, dC16, dC25 and dU23; 3' idT) [ARC33874]: the binding signal was not above 5 fold IC50 vs ARC17480.

The molecule GGAAUAUACUUGGCUCGUUAGGUGCGTAUAUA (XNA, 2'-OMe except dC9, dC14, dC16, dC25 and dT27; 3' idT) [ARC19470] registered a binding signal not above 5 fold IC50 vs ARC17480.

On to GGAAUAUACUUGGCUCGUUAGGUGCGUAUAUA (XNA, 2'-OMe except dC9, dC14, dC16, dC25 and dA8; 3' idT) [ARC19455], for which the binding signal is not above 5 fold IC50 vs ARC17480.

With GGAAUAUACUUGGCUCGUUAGGUGCGUAUAUA (XNA, 2'-OMe except dC9, dC14, dC16, dC25 and dG21; 3' idT) [ARC19465], the binding signal is not above 5 fold IC50 vs ARC17480.

As for GGAAUAUACUUGGCUCGUUAGGUGCGUAUATA (XNA, 2'-OMe except dC9, dC14, dC16, dC25 and dT31; 3' idT) [ARC19474], the binding signal was not above 5 fold IC50 vs ARC17480.

For the molecule GGAAUAUACUUGGCUCGUUAGGUGCGUAUAUA (XNA, 2'-OMe except dC9, dC14, dC16, dC25 and dA28; 3' idT) [ARC19471], the binding signal was not above 5 fold IC50 vs ARC17480.

For GGAAUAUACUUGGCTCGUUAGGUGCGUAUAUA (XNA, 2'-OMe except dC9, dC14, dC16, dC25 and dT15; 3' idT) [ARC19460], the binding signal is not above 5 fold IC50 vs ARC17480.

The molecule GGAAUAUACUUGGCUCGUUAGGUGCGUAUAUA (XNA, 2'-OMe except dC9, dC14, dC16, dC25 and dG1; 3' idT) [ARC19448] had a binding signal not above 5 fold IC50 vs ARC17480.

Regarding GGAAUAUACUUGGCUCGUUAGGUGCGUAUAUA (XNA, 2'-OMe except dC9, dC14, dC16, dC25 and dU5; 3' idT) [ARC33867], the binding signal is not above 5 fold IC50 vs ARC17480.

With GGAAUAUACUUGGCUCGUUAGGUGCGUATAUA (XNA, 2'-OMe except dC9, dC14, dC16, dC25 and dT29; 3' idT) [ARC19472], the binding signal is not above 5 fold IC50 vs ARC17480.

The molecule GGAAUAUACUUGGCUCGUTAGGUGCGUAUAUA (XNA, 2'-OMe except dC9, dC14, dC16, dC25 and dT19; 3' idT) [ARC19463] had a binding signal not above 5 fold IC50 vs ARC17480.

Consider GGAAUAUACUUGGCUCGUUAGGUGCGUAUAUA (XNA, 2'-OMe except dC9, dC14, dC25; 2'-F C16; 3' idT) [ARC19495], for which the binding signal is not above 5 fold IC50 vs ARC17480.

In turn, GGAAUAUACUUGGCUCGUUAGGUGCGUAUAUA (XNA, 2'-OMe except dC9, dC14, dC16, dC25 and dA6; 3' idT) [ARC19453] yielded a binding signal not above 5 fold IC50 vs ARC17480.

GGAAUAUACUUGGCUCGUUAGGUGCGUAUAUA (XNA, 2'-OMe except dC9, dC14, dC16; 2'-F C25; 3' idT) [ARC19496] had a binding signal not above 5 fold IC50 vs ARC17480.

On to GGAAUAUACUUGGCUCGUUAGGUGCGUAUAUA (XNA, 2'-OMe except dC9, dC14, dC16, dC25 and dU27; 3' idT) [ARC33875], for which the binding signal was not above 5 fold IC50 vs ARC17480.

For the molecule GGAAUAUACUUGGCUCGUUAGGUGCGUAUAUA (XNA, 2'-OMe except dC9, dC14, dC16, dC25 and dU18; 3' idT) [ARC33872], the binding signal was not above 5 fold IC50 vs ARC17480.

The molecule GGAAUAUACUUGGCUCGUUAGGUGCGUAUAUA (XNA, 2'-OMe except dC9, dC14, dC16, dC25 and dG22; 3' idT) [ARC19466] yielded a binding signal not above 5 fold IC50 vs ARC17480.

The molecule GGAAUAUACUUGGCUCGUUAGGUGCGUAUAUA (XNA, 2'-OMe except dC9, dC14, dC16, dC25 and dG13; 3' idT) [ARC19459] returned a binding signal not above 5 fold IC50 vs ARC17480.

Take GGAAUAUACUUGGCUCGUUAGGUGCGUAUAUA (XNA, 2'-OMe except dC9, dC14, dC16, dC25 and dU29; 3' idT) [ARC33876]: the binding signal is not above 5 fold IC50 vs ARC17480.

The molecule GGAAUAUACUUGGCUCGUUAGGUGCGUAUAUA (XNA, 2'-OMe except dC9, dC14, dC16, dC25 and dA32; 3' idT) [ARC19475] returned a binding signal not above 5 fold IC50 vs ARC17480.

Regarding GGAAUAUACUUGGCUCGUUAGGUGCGUAUAUA (XNA, 2'-OMe except dC9, dC14, dC16, dC25 and dG17; 3' idT) [ARC19461], the binding signal was not above 5 fold IC50 vs ARC17480.

In the case of GGAAUAUACUUGGCUCGUUAGGUGCGUAUAUA (XNA, 2'-OMe except dC9, dC14, dC16, dC25 and dU7; 3' idT) [ARC33868], the binding signal is not above 5 fold IC50 vs ARC17480.

In turn, GGAAUAUACUUGGCUCGUUAGGUGCGUAUAUA (XNA, 2'-OMe except dC9, dC14, dC16, dC25 and dU15; 3' idT) [ARC33871] came in with a binding signal not above 5 fold IC50 vs ARC17480.

GGAAUAUACUUGGCUCGUUAGGUGCGUAUAUA (XNA, 2'-OMe except dC9, dC14, dC16, dC25 and dG24; 3' idT) [ARC19468] yielded a binding signal not above 5 fold IC50 vs ARC17480.

GGAAUAUACUUGGCUCGUUAGGUGCGUAUAUA (XNA, 2'-OMe except dC9, dC14, dC16, dC25 and dU19; 3' idT) [ARC33873] displayed a binding signal not above 5 fold IC50 vs ARC17480.

Molecule GGAAUAUACUUGGCUCGUUAGGUGCGUAUAUA (XNA, 2'-OMe except dC9, dC14, dC16, dC25 and dG12; 3' idT) [ARC19458] displayed a binding signal not above 5 fold IC50 vs ARC17480.

Regarding GGAAUAUACUUGGCUCGUUAGGUGCGUAUAUA (XNA, 2'-OMe except dC9, dC14, dC16, dC25 and dA30; 3' idT) [ARC19473], the binding signal was not above 5 fold IC50 vs ARC17480.

The next data set deals with T1, TFPI (tissue factor pathway inhibitor, …). Kind of data set: competition; fails binding-competition criterion. Particulars: tags: American Diagnostica 4500PC/4900PC, E. coli expressed. As for the experimental part:
Each molecule was evaluated for binding to tissue factor pathway inhibitor (TFPI) in a binding-competition assay. For these experiments, 10 nM human TFPI (American Diagnostica, Stamford, Conn., catalog #4500PC) was incubated with trace amounts of radiolabeled ARC17480 and 5000 nM, 1666.67 nM, 555.56 nM, 185.19 nM, 61.73 nM, 20.58 nM, 6.86 nM, 2.29 nM, 0.76 nM or 0.25 nM of unlabeled competitor aptamer. ARC17480 was included as a competitor in every experiment as a control. For each molecule, the percentage of radiolabeled ARC17480 bound at each competitor aptamer concentration was used for analysis. The percentage of radiolabeled ARC17480 bound was plotted as a function of aptamer concentration and fit to the equation y=(max/(1+x/IC₅₀))+int, where y=the percentage of radiolabeled ARC17480 bound, x=the concentration of aptamer, max=the maximum radiolabeled ARC17480 bound, and int=the y-intercept, to generate an IC₅₀ value for binding-competition. The IC₅₀ of each aptamer was compared to the IC₅₀ of ARC17480 that was evaluated in the same experiment. A substitution was considered tolerated in the binding-competition assay if the IC₅₀ of that molecule was not more than 5-fold greater than that of ARC17480 evaluated in the same experiment. Tolerated substitutions are indicated in Table 38 as meeting the assay criteria (“yes”) or not meeting the assay criteria (“no”).
In the case of GGAAUAUACUUGCUCGUUAGGUGCGUAUAUA (mixed, 2'-OMe A/G/U, 2'-deoxy C, 3' idT) [ARC33127], the binding signal is > 5 fold IC50 of ARC17480.

Consider GGAAUAUACUUGGCCGUUAGGUGCGUAUAUA (mixed, 2'-OMe A/G/U, 2'-deoxy C, 3' idT) [ARC33129], for which the binding signal was > 5 fold IC50 of ARC17480.

As for GGAAUAUACUUGGUCGUUAGGUGCGUAUAUA (mixed, 2'-OMe A/G/U, 2'-deoxy C, 3' idT) [ARC33128], the binding signal is > 5 fold IC50 of ARC17480.

Take GGAAUAUACUUGGCUGUUAGGUGCGUAUAUA (mixed, 2'-OMe A/G/U, 2'-deoxy C, 3' idT) [ARC33130]: the binding signal is > 5 fold IC50 of ARC17480.

Regarding GGAAUAACUUGGCUCGUUAGGUGCGUAUAUA (mixed, 2'-OMe A/G/U, 2'-deoxy C, 3' idT) [ARC33123], the binding signal was > 5 fold IC50 of ARC17480.

GGAAUAUACUGGCUCGUUAGGUGCGUAUAUA (mixed, 2'-OMe A/G/U, 2'-deoxy C, 3' idT) [ARC33126]: the binding signal is > 5 fold IC50 of ARC17480.

For the molecule GGAAUAUAUUGGCUCGUUAGGUGCGUAUAUA (mixed, 2'-OMe A/G/U, 2'-deoxy C, 3' idT) [ARC33125], the binding signal is > 5 fold IC50 of ARC17480.

As to GGAAUAUCUUGGCUCGUUAGGUGCGUAUAUA (mixed, 2'-OMe A/G/U, 2'-deoxy C, 3' idT) [ARC33124], the binding signal is > 5 fold IC50 of ARC17480.
